# In the nanobody polyreactivity screen of Harvey et al. (2022):
# Experiment: yeast display, Sf9 membrane polyspecificity reagent, FACS + sequencing; frameworks hold sequencing errors
# In short: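 Using colony PCR, genes from sorted yeast display clones were amplified, then sequenced on MiSeq at 2 × 250 and filtered by CDR length. The clones had been stained with 10% biotinylated, detergent-solubilized Sf9 membrane reagent for 1 hour at 4 °C and sorted by FACS into low and high (top ~1%) gates on anti-HA and streptavidin fluorescence. Polyreactivity labels come from the gate of origin.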
row,Sequence,polyreactivity (PSR sort gate)
1,QVQLVESGGGLVQAGGSLRLSCAASGSIFSSNTMGWYRQAPGKERELVAAITVSGGRTYYADSVKGRFTISRDNAKNTVYLQMNSLKPEDTAVYYCATRWFGNSYSYRAYDYWGQGTQVTVSS,high polyreactivity
2,QVQLVESGGGLVQAGGSLRLSCAASGSIFSSYAMGWYRQAPGKEREFVAAINNNDGGTDYADSVKGRFTISRDNAKNTVYLQMNSLKPEDTAVYYCAADYTRYVQTTYDYWGQGTQVTVSS,low polyreactivity
3,QVQLVESGGGLVQAGGSLRLSCAASGSIFSSYAMGWYRQAPGKERELVAAISTAGSTNYADSVKGRFTISRDNAKNTVYLQMNSLKPEDTAVYYCAADSGDQQSYGLDLNHDFDYWGQGTQVTVSS,low polyreactivity
4,QVQLVESGGGLVQAGGSLRLSCAASGSIFSSYAMGWYRQAPGKERELVAGISKSGGSTYYADSVKGRFTISRDNAKNTVYLQMNSQKPEDTAVYYCAGPSYWGGGRYRYGYWGQGTQVTVSS,high polyreactivity
5,QVQLVESGGGLVQAGGSLRLSCAASGSIFSSYTMGWYRQAPGKERELVAAISSTGSTYYADSVKGRFTISRDNAKNTVYLQMNSLKPEDTAVYYCAARGWYWQQYKGHTRYDYWGQGTQVTVSS,high polyreactivity
6,QVQLVESGGGLVQAGGSLRLSCAASGSIFSTYAMGWYRQAPGKERELVAAINSGDSTSYADSVKGRFTISRDNAKNTVYLQMNSLKPEDTAVYYCAAKTGGYWYLRRTGRYESWGQGTQVTVSS,low polyreactivity
7,QVQLVESGGGLVQAGGSLRLSCAASGSIFSTYAMGWYRQAPGKERELVAAITRRGGSTYYADSVKGRFTISRDNAKNTVYLQMNSLKPEDTAVYYCNAAAKSRMDYWGQATQVTVSS,high polyreactivity
8,QVQLVESGGGLVQAGGSLRLSCAASGSIFSTYGMGWYRQAPGKERELVAAITTSGGRTYYADSVKGRFTISRDNAKNTVYLQMKSLKPEVTAVYYCKAVRGGRYGLDYWGQGTQVNVSS,high polyreactivity
9,QVQLVESGGGLVQAGGSLRLSCAASGSIFSVNTMGWYRQAPGKERELVAAISESGDGTYYADSVKGRFTISRDNAKNTVYLQMNSLKPEDTAVYYCNADRQKGGGYYPHEFDYWGQGTQVTVSS,low polyreactivity
10,QVQLVESGGGLVQAGGSLRLSCAASGSIFSVYAMGWYIQAPGKEREFVASISGGSGRTYYADSVKGRFTISRDNAKNTVYLQMNSLKPEDTAVYYCAAAYWAYDTGKMGYWGQGTQVTVSS,low polyreactivity
11,QVQLVESGGGLVQAGGSLRLSCAASGSIFSWNAMGWYRQAPGKERELVAGITWSGGGTSYADSVKGRFTISRDNAKNTVYLQMNSLKPEDTAVYYCAKEWIFDFNYWGQGTQVTVSS,low polyreactivity
12,QVQLVESGGGLVQAGGSLRLSCAASGSIFSWYAMGWYRQAPGKERELVAAISSRGGSTYYADSVKGRFTISRDTAKNTVYLQMYSLKPEDTAVYYCNTTYGYSTYWASGKYDYWGQGTQVTVSS,low polyreactivity
13,QVQLVESGGGLVQAGGSLRLSCAASGSIFSYNAMGWDRQAPGKESELVAAITSGGGTNYADSVKGRFTISRDNAKNTVYLQINSLKPEDTAVYYCNAVPNYYDYDSWGQGTQVTVSS,high polyreactivity
14,QVQLVESGGGLVQAGGSLRLSCAASGSIFSYNAMGWYRQAPGKERELVADITGSGGSTYYADSVKGRFTISRDNAKNTVYLQMNSLKPEDTAVYYCNAVGQYYYLGYDYWGQGTQVTVSS,low polyreactivity
15,QVQLVESGGGLVQAGGSLRLSCAASGSIFSYNVIGWYRQAPGKEREMVATITVDGTSTYYADSVKGRFTISRDNAKNTVYLQMNSLKPEDTAVYDCAADETASFTQEYEEMEYWGQGTQVTVSS,low polyreactivity
16,QVQLVESGGGLVQAGGSLRLSCAASGSIFSYYAMGRYRQAPGKEREIVAAISWSGGSTYYADSVKGRFTISRDNAKNTVYLQMNSLKPEDTAVYYCAAELSLSWLVPDVPYYYWGQGTQVTVSS,low polyreactivity
17,QVQLVESGGGLVQAGGSLRLSCAASGSIFSYYAMGWSRQAPGKERELVATISWSGGSTYYADSVKGRFTISRDNAKNTVYLQMNSLKPEDTAVYYCAARIWTGRGRKLGYGYDYWGQGTQVTVSS,low polyreactivity
18,QVQLVESGGGLVQAGGSLRLSCAASGSIFSYYAMGWYRQAPGKERELVAAISKRGASTYYADSVKGRFTISRDNAKNTVYLQMNSLKPEDTAVYYCAAYRQGSAYDYWGQGTQVTVSS,high polyreactivity
19,QVQLVESGGGLVQAGGSLRLSCAASGSIFSYYAMGWYRQAPGKERELVAAISRGGSTYYADSVKGRFTISRDKAKNTVYLQMNSLKPEDTAVYYCNVDSFRYRHTGYGYTRYGYWGQGTQVTVSS,high polyreactivity
20,QVQLVESGGGLVQAGGSLRLSCAASGSIFSYYAMGWYRQAPGKERELVASITYSGGSTYYADSVKGRFTISRDNAKNTVYLQMNSLKPEDTAVYYCAAPLAYEGDYWGQGTQVTVSS,low polyreactivity

row,Sequence,polyreactivity (PSR sort gate)
1,QVQLVESGGGLVQAGGSLRLSCAASGSIFSYYAMGWYRQAPGKERELVATISNSGVSTYYADSVKGRFTISRDNAKNTVYLQMNSLKPEDTAVYYCAKEWLYYNGFFRSYYWGQGTQVTVSS,high polyreactivity
2,QVQLVESGGGLVQAGGSLRLSCAASGSIFSYYAMGWYRQAPGKERELVAVISSSGGRTYYADSVKGRFTISRDNAKNTVYLQMNSLKPEDTAVYYCARERWWGGSDYWGQGTQVTVSS,high polyreactivity
3,QVQLVESGGGLVQAGGSLRLSCAASGSIFSYYAMGWYRQAPGKETEVVAAISQNGGSTYYADSVKGRVTISRDNAKNTVYLQMNSLKPEDTAVYYCNAYSVYVRGEYWGQGTQVTVSS,high polyreactivity
4,QVQLVESGGGLVQAGGSLRLSCAASGSIFSYYAMGWYRQSPGNERELVAAITWSGGSTNYADSVKGRFTISRDNAKNTVYLQMTSLKPEDTAVYYCAADYWAWGKNEYDYWGQGTQVTVSS,low polyreactivity
5,QVQLVESGGGLVQAGGSLRLSCAASGSIFSYYVMGWYRQAPGKERELVARINWSSTSTYYADSVKGRFTISRDNAKNTVYLQMHSLKPEDTAVYYCAAAKRYGRYYEYDYWGQGTQVTVSS,high polyreactivity
6,QVQLVESGGGLVQAGGSLRLSCAASGSIFTDNAMGWYKQAPGKERELVAVISSGGRTYYADSVKGRFTISRDNAKNTVYLQMNSLKPEDTAVYYCKGQKRYPFSGIEDYWGQGTQVNVSS,high polyreactivity
7,QVQLVESGGGLVQAGGSLRLSCAASGSIFTDNAMGWYRQAPGKERELVAAITSNGGSTYYADSVKGRFTISRDNAKNTVYLQMNSLKPEDTAVYYCAADSLYREDDYWGQGTQVTVSS,low polyreactivity
8,QVQLVESGGGLVQAGGSLRLSCAASGSIFTFYAMGWYRQAPGKERELVATINRIGGNTYYADSVKGRFTISRDNAKNTVYLQMNSLKPEDTAVYYCAKLYGSANGYDYWGQGTQVSVSS,low polyreactivity
9,QVQLVESGGGLVQAGGSLRLSCAASGSIFTFYAMGWYRQAPGKERELVATITWLGGSTYADAVKGRFTISRDNAKNTVYLQMNSLKPEDTAVYYCNADYRSYWYKLDYWGQGTQVTVSS,high polyreactivity
10,QVQLVESGGGLVQAGGSLRLSCAASGSIFTGYAMGWYRQAPGKERELVAAIRTRGGSTYYADSVKGRFTISRDNAKNTVYLQMNSLKPEDTAVYYCAKRYYGWYGNFDYWGQGTLVTVSS,high polyreactivity
11,QVQLVESGGGLVQAGGSLRLSCAASGSIFTGYAMGWYRQARGKESELVAAIDDSGDSTYYADSVKVRFTISRDNATNTVYLQMNSLKPEDTAVYYSKAEYRVNKEYDYWGQGTQVTVSS,low polyreactivity
12,QVQLVESGGGLVQAGGSLRLSCAASGSIFTGYTMGRYRQATGKERELVAAITWNGGSTYYADSVKGRFTISRDNAKNTVYLQMNSLKPEDTAVYYCAAVPYTPSPYTYGYWGQGTQVTVSS,high polyreactivity
13,QVQLVESGGGLVQAGGSLRLSCAASGSIFTHNAMGWSRQAPGKERELVATISYGGGRTYYADSVKGRFTISRDNAKNTVYLQMNSLKPEDTAVYYCNALRGGPFRWHGYYYWGQGTQVTVSS,low polyreactivity
14,QVQLVESGGGLVQAGGSLRLSCAASGSIFTHNAMGWYRQAHGKERELVAAISSGGSTNYADSVKGRFTISRDNAKNTVYLQMNSLKPEDTAVYYCAKSIDGWYWRRRRYDYWGQGTQVTVSS,low polyreactivity
15,QVQLVESGGGLVQAGGSLRLSCAASGSIFTHNAMGWYRQAPGKERELVATISYGGGRTYYADSVKGRFTISRDNAKNTVYLQMNSLKPEDTAVYYCAADVYWYAYVWRKYGYWGQGTQVTVSS,low polyreactivity
16,QVQLVESGGGLVQAGGSLRLSCAASGSIFTHYAMGWYRQAPGKERELVAAISRRGGSTYYADSVKGRFTISRDNAKNTVYLQMNSLKPEDTAVYYCAVRLYLEMDYWGQGTQVTVSS,high polyreactivity
17,QVQLVESGGGLVQAGGSLRLSCAASGSIFTHYAMGWYRQAPGKERELVAAITWSGGSTYYADSVKGRFTISRDNAKYTVYLQMNSLKPEDTAVYYCNVAWVGVSLVYGPFEYDYWGQGTQVTVSS,high polyreactivity
18,QVQLVESGGGLVQAGGSLRLSCAASGSIFTIYAMGWYRQAPGKERELVAAINRGDGTNYADSVKGRFTISRDNAKNTVYLQMNSLKPEDTAVYYCAAKAYTNYDRQVNLRRYYWGQGTQVTVSS,high polyreactivity
19,QVQLVESGGGLVQAGGSLRLSCAASGSIFTKYAMGWYRQAPGKERELVAAISKTGGSTYYADSVKGRFTISRDTAKNTVYLQMNSLKPEDTAVYYCNAAGGYSVYKRGRDYWGQGTQVTGSS,high polyreactivity
20,QVQLVESGGGLVQAGGSLRLSCAASGSIFTKYVMGWYRQAPGKERELVAAITYRGGSTYYADSVKGRFTISRDNAKNTVYLQMNSLKPEDTAVYDCAAEYYRYKYTAYRTDDYWGQGTQVTVSS,high polyreactivity
